Laboratory results reported in patent US7763418B2, “Detection of Rho proteins” (Cytoskeleton, Inc., priority 2005, dated 2010).

Biological target: T1, Rac1 (61L) binding to POSH-GBD (Homo sapiens, UniProt P63000, Q61L)
T1 construct: His; purchased Cytoskeleton Inc. R6101
Test: Rac1:POSH G-LISA competition (drug discovery application)
Procedure: Active Rho protein (typically 7-15 μg total cell lysate or 1-5 ng of constitutively active recombinant protein) were either added directly to the effector bound G-LISA plate (Rac1 and Cdc42 G-LISAs) or diluted with an equal volume of Binding Buffer (20% PEG 8000, Sigma, St. Louis, Mo.) prior to adding to effector bound plates (RhoA G-LISA). The reactions were incubated for 30 minutes at 4° C. on a microtiter titer plate shaker after which wells were washed once with 200 μl of PBST (PBS pH 7.2, 0.05% Tween-20) and immediately treated with 200 μl of Antigen Presenting Buffer (1% trichloroacetic acid (TCA)) for 2-5 minutes at room temperature. Wells were then washed three times with 200 μl each of PBST and primary antibody is added typically at 1 μg/ml (RhoA specific), 0.25 μg/ml (Rac1 specific), 1 μg/ml (Cdc42 specific) and incubated at room temperature for 45 minutes (incubation at 4° C. gave similar results). Wells are washed three times with 200 μl each of PBST and incubated with appropriate secondary antibody for 45 minutes at room temperature (incubation at 4° C. gave similar results). […] After three washes each of 200 μl PBST the activated Rho proteins are detected using absorbance or luminescence detection as described below. […]

- IC50 relative to PAK: approximately 80 times
B1: ROCK-GST: RhoA effector ROCK-GBD peptide, negative control inhibitor in Rac1:POSH G-LISA (protein)
chain: EAEQYFSTLYKTQVKELKEEIEEKNRENLKKIQELQNEKETLATQLDLAETKAESEQLARGLLEEQYFELTQESKKAASRNRQEITDKDHTVSRLEEANSMLTKDIEILRRENEELTEKMKKAEEEYKLEKEEEISNLKAAFEKNINTERTLKTQAVNKLAEIMNRKDFKIDRKKANT
modifications: left off: a dimerising Fc or GST
